Assay results published in PMC9481538, “The interaction between LC8 and LCA5 reveals a novel oligomerization function of LC8 in the ciliary-centrosome system” (Scientific Reports, 2022).

Legend:
LC8 [1] = target: T1, LC8 (Homo sapiens, UniProt Q96FJ2); assay: isothermal titration calorimetry, sLCA5 fragments titrated with LC8; format: binding; details: ITC, PBS pH 7.4, 1 mM TCEP, 37 °C; MBP-fused sLCA5 titrated with LC8
T1 construct: 6xHis (N); made in house; host or cells: E. coli BL21 (DE3) Rosetta
T1 sequence (Q96FJ2 whole entry, the tested form may be a part): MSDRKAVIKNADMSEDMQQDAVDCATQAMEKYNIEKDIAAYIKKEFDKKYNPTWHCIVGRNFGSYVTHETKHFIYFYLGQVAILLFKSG
Description: LC8 and MBP-fused LCA5 constructs were prepared in PBS supplemented with 1 mM TCEP. Before measurement, protein samples were dialyzed overnight in PBS pH 7.4 (Orange Scientific, OrDial D14 membrane). Peptides were diluted from stock with the buffer used for dialysis. The concentration of samples was determined based on absorbance at 280 nm in the case of proteins, and 205 nm for the peptide. Experiments were performed using MicroCal PEAQ-ITC (Malvern Panalytical), LCA5 peptides were measured at 25 °C, proteins were analyzed at 37 °C. Lebercilin peptide was injected into the cell 18 times 2 μl volumes, with 5 min timing between injections. In case of the protein, LCA5 was placed in the sample cell, and LC8 was injected during 37 injections, 1 μl each. The results were evaluated using MicroCal PEAQ-ITC Analysis Software.

GST-fused LC8 = assay: GST pull-down of LC8 and sLCA5; format: binding; details: GST-LC8 bait, MBP-, 6x-His-fused sLCA5 prey, PBS, 1 mM DTT, room temperature; result in words
Description: For the pull-down experiments, GST-fused LC8 was used as bait, and MBP-, 6x-His-fused LCA5 variants as prey. For controls, GST and MBP were used. Proteins were expressed in 100 ml cultures of E. coli BL21 (DE3) Rosetta cells as described above. Cells were harvested, resuspended in 5 ml PBS supplemented with 1 mg/ml lysozyme and 1 mM DTT, sonicated and clarified by centrifugation. 20 μl of Glutathione Sepharose 4B (Macherey–Nagel) (75%) resin was used for each experiment. Baits were incubated with the resin for 1 h at room temperature, then washed with PBS supplemented with 1 mM DTT. Prey proteins were added and incubated for one hour. The beads were washed and eluted by boiling in a 2 × SDS sample buffer and analyzed in tricine SDS page according to the protocol of Schagger et al[43].

LC8 [2] = target: T1, LC8; assay: SDS-PAGE densitometric analysis of gel filtration fractions (sLCA5:LC8 molar ratio); format: binding; details: SDS-PAGE densitometry; result in words
Description: (§1) For analytical gel filtration a Superose 6 Increase 10/300 (Cytiva) was used with an effective resolution between 5–5000 kDa range and a void volume above 5000 kDa. The column was equilibrated in DPBS supplemented with 200 μM TCEP. The calibration curve was fitted on the chromatogram of gel filtration standard mix (BioRad) with the addition of Dextran Blue to determine the void volume. 100 μl of LCA5 purified protein or LCA5-LC8 complex was injected at the concentration of 30 μM for LCA5 and 150 μM for LC8, with a flow rate of 500 μl/min immediately or after 60 min of incubation at 37 °C. For densitometric analysis, fractions were collected and 200 μl of samples were precipitated in 1.8 ml 96% ethanol at − 80 °C for 2 h. The samples were centrifugated for 30 min at 14,000 g, and dissolved in 15 μl of SDS sample buffer. 10 μl of each sample was run on Tricine-SDS gel. The calibration of the densitometry was performed on samples of known molar ratio of sLCA5 construct and LC8 (see the original gel used for calibration on Suplementary Fig. S16). Data evaluation was performed by using Origin 8 software and Fiji ImageJ software.

[3] = analytical gel filtration; format: physicochemical; details: with LC8, 60 min at 37 °C vs non-incubated complex
Description: as §1

[4] = negative staining transmission electron microscopy of sLCA5-LC8 complexes; format: physicochemical
Description: For TEM negative staining experiments, a JEOL JEM-1011 (JEOL Ltd., Tokyo, Japan) electron microscope was used. The purified LCA5-LC8 complexes or LC8 or LCA5 forms alone were put together by using LCA5-WT or the single or double mutants at 30 μM and LC8 at 150 μM concentration in a buffer of 20 mM Tris 70 mM NaCl, pH 7.4, and incubated at 37 °C for 1 h. The complexes were diluted to a final 0.2 mg/ml concentration in the buffer and applied to 300 mesh formvar/carbon-coated copper grids (SPI Inc., USA). After 2 min of incubation the surplus was removed by filter paper and 1% uranyl acetate was applied for 1 min as negative staining. Images were taken around the middle of the grid at 5000, 50,000, 150,000 and 300,000-fold magnification. The collected data was analyzed by Fiji ImageJ software, and the statistical analysis was carried out in Origin 8 software.

HA-tagged LC8 = assay: co-immunoprecipitation of LC8 with full-length FLAG-LCA5 in HEK293 cells; format: cell-based, human; details: for co-immunoprecipitation of LC8: HEK-293, FLAG-LCA5 and HA-LC8 co-expressed 48 h, anti-LCA5 and anti-FLAG antibodies
Description: HEK-293 cells were transfected with FLAG-LCA5-pcDNA3.1 + and HA-LC8-pcDNA3.1 + constructs and incubated for 48 h. After 48 h, cells were washed with ice-cold DPBS (Lonza) and lysed on ice with lysis buffer (50 mM TRIS 2 mM EDTA 100 mM NaCl 10% Glycerol and 0.5% IGEPAL supplemented with protease (Sigma Aldrich) and phosphatase (Sigma-Aldrich) inhibitors). Total protein concentration was determined by the BCA kit (Sigma Aldrich). For each co-immunoprecipitation reaction 1 mg total protein was used and 20 μg of anti-lebercilin (19,333-1-AP Proteintech), anti-LC8 (16,811–1-AP Proteintech), polyclonal antibody, anti-FLAG (8146 Cell Signaling Technologies), anti-MYC (2276 Cell Signaling Technologies) or anti-HA (sc-7392 Santa Cruz Biotechnology) monoclonal antibody was added respectively and incubated for 4 h at 4 °C. The immunocomplexes were incubated with protein A/G sepharose beads (Cell Signaling Technologies) overnight. The immunocomplex-containing beads were washed three times in lysis buffer, then two times in detergent-free lysis buffer, proteins were eluted by boiling in 2 × Laemmli buffer. The samples were analyzed by 10% tricine-SDS PAGE. The SDS gel was cut half above the 35 kDa marker band and subsequently blotted onto two separate Amersham Hybond PVDF membrane (GE Healthcare). The LCA5 containing upper half was blotted for 180 min, the LC8 containing lower part was blotted for 80 min. The membranes were blocked in 5% BSA and the LCA5 and LC8 containing parts are incubated with mouse anti-FLAG 1:1000 (8146 Cell Signaling Technologies), and rabbit anti-LC8 1:1000 (ab51603 Abcam) primary antibodies respectively overnight at 4 °C. After washing with TBS-T, membranes were incubated with secondary antibodies (ECL PLEX Goat-Anti-Rabbit IgG CY5 1:1500 and CL PLEX Goat-Anti-Mouse IgG CY3 1:1500, Ge Healthcare) for 1 h at room temperature, then scanned in a Typhoon scanner (GE Healthcare).

B1: sLCA5-ΔVQT: sLCA5 with the three core residues VQT exchanged for three alanines (protein)
chain: DTDLVTKRILSARLLKINELQNEVSELQVKLAELLKENKSLKRLQYRQEKALNKFEDAENEISQLIFRHNNEITALKERLRKSQEKERATEKRVKDTESELFRTKFSLQKLKEISEARHLPERDDLAKKLVSAELKLDDTERRIKELSKNLELSTNSFQRQLLAERKRAYEAHDENKVLQKEVQRLYHKLKEKERELDIKNIYSNRLPKSSPNKEKELALRKNAACQSDFADLCTKGAAAMEDFKPEEYPLTPETIMCYENKWEEPGHLTLDLQSQKQDRHGEAGILNPIMEREEKFVTDEELHVVKQEVEKLEDEWEREELDKKQKEKASLLER
modifications: left off: MBP, N-terminal, kept | His6, C-terminal, kept
notes: sLCA5 with the three core residues VQT exchanged for three alanines
− TΔS (LC8 [1]): 4.32 kcal/mol
interaction with LC8 (GST pull-down) (GST-fused LC8): did not abolish the interaction with LC8
LC8 content of fraction (LC8 [2]): only a trace amount of LC8

B2: sLCA5-ΔCQS: sLCA5 with alanine mutations in the CQS motif core; VQT motif intact (protein)
chain: DTDLVTKRILSARLLKINELQNEVSELQVKLAELLKENKSLKRLQYRQEKALNKFEDAENEISQLIFRHNNEITALKERLRKSQEKERATEKRVKDTESELFRTKFSLQKLKEISEARHLPERDDLAKKLVSAELKLDDTERRIKELSKNLELSTNSFQRQLLAERKRAYEAHDENKVLQKEVQRLYHKLKEKERELDIKNIYSNRLPKSSPNKEKELALRKNAAAAADFADLCTKGVQTMEDFKPEEYPLTPETIMCYENKWEEPGHLTLDLQSQKQDRHGEAGILNPIMEREEKFVTDEELHVVKQEVEKLEDEWEREELDKKQKEKASLLER
modifications: left off: MBP, N-terminal, kept | His6, C-terminal, kept
notes: sLCA5 with alanine mutations in the CQS motif core; VQT motif intact
− TΔS (LC8 [1]): 0.07 kcal/mol
interaction with LC8 (GST pull-down) (GST-fused LC8): maintained the interaction with LC8
void fraction increment on incubation [3]: 35%
measured diameter median of spherical complexes ([4]; 30 μM sLCA5 + 150 μM LC8, 37 °C 1 h, 20 mM Tris 70 mM NaCl pH 7.4): 32 nm
amount of detectable oligomeric particles ([4]; TEM, result in words): notable amount of particles around the edges of the grids

B3: FLAG-LCA5: full-length LCA5 with N-terminal FLAG-tag (protein)
chain: MGERAGSPGTDQERKAGKHHYSYLSDFETPQSSGRSSLVSSSPASVRRKNPKRQTSDGQVHHQAPRKPSPKGLPNRKGVRVGFRSQSLNREPLRKDTDLVTKRILSARLLKINELQNEVSELQVKLAELLKENKSLKRLQYRQEKALNKFEDAENEISQLIFRHNNEITALKERLRKSQEKERATEKRVKDTESELFRTKFSLQKLKEISEARHLPERDDLAKKLVSAELKLDDTERRIKELSKNLELSTNSFQRQLLAERKRAYEAHDENKVLQKEVQRLYHKLKEKERELDIKNIYSNRLPKSSPNKEKELALRKNAACQSDFADLCTKGVQTMEDFKPEEYPLTPETIMCYENKWEEPGHLTLDLQSQKQDRHGEAGILNPIMEREEKFVTDEELHVVKQEVEKLEDEWEREELDKKQKEKASLLEREEKPEWETGRYQLGMYPIQNMDKLQGEEEERLKREMLLAKLNEIDRELQDSRNLKYPVLPLLPDFESKLHSPERSPKTYRFSESSERLFNGHHLQDISFSTPKGEGQNSGNVRSPASPNEFAFGSYVPSFAKTSERSNPFSQKSSFLDFQRNSMEKLSKDGVDLITRKEKKANLMEQLFGASGSSTISSKSSDPNSVASSKGDIDPLNFLPGNKGSRDQEHDEDEGFFLSEGRSFNPNRHRLKHADDKPAVKAADSVEDEIEEVALR
modifications: left off: FLAG, N-terminal, kept
notes: full-length LCA5 with N-terminal FLAG-tag
co-immunoprecipitation of LC8 (HA-tagged LC8): interaction was detected
co-immunoprecipitation of LC8 (HA-tagged LC8; listed as FLAG-tagged LCA5): LC8 was co-precipitated
co-immunoprecipitation interaction (HA-tagged LC8; HEK-293, FLAG-LCA5 and HA-LC8 co-expressed, precipitation with anti-HA and anti-LC8 antibodies): no
